Experimental data as given in article PMC3154423.

Assays:
Assay in all cases: ITC
[1] = molecular target: Jun bZIP K273A;Fos bZIP R146A (human;human, UniProt P05412;P01100 252-315;137-200, K273A|R146A)
[2] = molecular target: Jun bZIP K258A;Fos bZIP R143A (human;human, UniProt P05412;P01100 252-315;137-200, K258A|R143A)
[3] = molecular target: Jun bZIP R263A;Fos bZIP R144A (human;human, UniProt P05412;P01100 252-315;137-200, R263A|R144A)
[4] = molecular target: Jun bZIP R272A;Fos bZIP K153A (human;human, UniProt P05412;P01100 252-315;137-200, R272A|K153A)
[5] = molecular target: Jun bZIP K268A;Fos bZIP R143A (human;human, UniProt P05412;P01100 252-315;137-200, K268A|R143A)
[6] = molecular target: Jun bZIP K268A;Fos bZIP R155A (human;human, UniProt P05412;P01100 252-315;137-200, K268A|R155A)
[7] = molecular target: Jun bZIP K258A;Fos bZIP R157A (human;human, UniProt P05412;P01100 252-315;137-200, K258A|R157A)
[8] = molecular target: Jun bZIP K258A;Fos bZIP K153A (human;human, UniProt P05412;P01100 252-315;137-200, K258A|K153A)
[9] = molecular target: Jun bZIP R270A;Fos bZIP R146A (human;human, UniProt P05412;P01100 252-315;137-200, R270A|R146A)
[10] = molecular target: Jun bZIP K273A;Fos bZIP K148A (human;human, UniProt P05412;P01100 252-315;137-200, K273A|K148A)
[11] = molecular target: Jun bZIP R259A;Fos bZIP R146A (human;human, UniProt P05412;P01100 252-315;137-200, R259A|R146A)
[12] = molecular target: Jun-Jun bZIP WT (human, UniProt P05412 252-315)
[13] = molecular target: Jun bZIP R270A;Fos bZIP K148A (human;human, UniProt P05412;P01100 252-315;137-200, R270A|K148A)
[14] = molecular target: Jun bZIP K273A;Fos bZIP K153A (human;human, UniProt P05412;P01100 252-315;137-200, K273A|K153A)
[15] = molecular target: Jun bZIP K258A;Fos bZIP R155A (human;human, UniProt P05412;P01100 252-315;137-200, K258A|R155A)
[16] = molecular target: Jun-Jun bZIP R261A (human, UniProt P05412 252-315, R261A)
[17] = molecular target: Jun bZIP R270A;Fos bZIP R157A (human;human, UniProt P05412;P01100 252-315;137-200, R270A|R157A)
Jun bZIP R270A;Fos bZIP R157A, sequence (P05412 252-315 R270A, chain 1 of 2): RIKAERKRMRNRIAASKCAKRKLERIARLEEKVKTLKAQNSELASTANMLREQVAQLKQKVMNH
Jun bZIP R270A;Fos bZIP R157A, sequence (P01100 137-200 R157A, chain 2 of 2): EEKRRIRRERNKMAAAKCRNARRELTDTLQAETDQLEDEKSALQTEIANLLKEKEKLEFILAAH

Jun bZIP K258A;Fos bZIP R155A, sequence (P05412 252-315 K258A, chain 1 of 2): as the sequence (P05412 252-315 R270A, chain 1 of 2) above, with K7A, A19R counted along it
Jun bZIP K258A;Fos bZIP R155A, sequence (P01100 137-200 R155A, chain 2 of 2): as the sequence (P01100 137-200 R157A, chain 2 of 2) above, with R19A, A21R counted along it
Jun bZIP K258A;Fos bZIP K153A, sequence (P05412 252-315 K258A, chain 1 of 2): as the sequence (P05412 252-315 R270A, chain 1 of 2) above, with K7A, A19R counted along it
Jun bZIP K258A;Fos bZIP K153A, sequence (P01100 137-200 K153A, chain 2 of 2): as the sequence (P01100 137-200 R157A, chain 2 of 2) above, with K17A, A21R counted along it
Jun bZIP K258A;Fos bZIP R143A, sequence (P05412 252-315 K258A, chain 1 of 2): as the sequence (P05412 252-315 R270A, chain 1 of 2) above, with K7A, A19R counted along it
Jun bZIP K258A;Fos bZIP R143A, sequence (P01100 137-200 R143A, chain 2 of 2): as the sequence (P01100 137-200 R157A, chain 2 of 2) above, with R7A, A21R counted along it
Jun bZIP K258A;Fos bZIP R157A, sequence (P05412 252-315 K258A, chain 1 of 2): as the sequence (P05412 252-315 R270A, chain 1 of 2) above, with K7A, A19R counted along it
Jun bZIP K258A;Fos bZIP R157A, sequence (P01100 137-200 R157A, chain 2 of 2): as the sequence (P01100 137-200 R157A, chain 2 of 2) above
Jun bZIP R270A;Fos bZIP K148A, sequence (P05412 252-315 R270A, chain 1 of 2): as the sequence (P05412 252-315 R270A, chain 1 of 2) above
Jun bZIP R270A;Fos bZIP K148A, sequence (P01100 137-200 K148A, chain 2 of 2): as the sequence (P01100 137-200 R157A, chain 2 of 2) above, with K12A, A21R counted along it
Jun bZIP R270A;Fos bZIP R146A, sequence (P05412 252-315 R270A, chain 1 of 2): as the sequence (P05412 252-315 R270A, chain 1 of 2) above
Jun bZIP R270A;Fos bZIP R146A, sequence (P01100 137-200 R146A, chain 2 of 2): as the sequence (P01100 137-200 R157A, chain 2 of 2) above, with R10A, A21R counted along it
Jun bZIP R263A;Fos bZIP R144A, sequence (P05412 252-315 R263A, chain 1 of 2): as the sequence (P05412 252-315 R270A, chain 1 of 2) above, with R12A, A19R counted along it
Jun bZIP R263A;Fos bZIP R144A, sequence (P01100 137-200 R144A, chain 2 of 2): as the sequence (P01100 137-200 R157A, chain 2 of 2) above, with R8A, A21R counted along it
Jun bZIP K268A;Fos bZIP R143A, sequence (P05412 252-315 K268A, chain 1 of 2): as the sequence (P05412 252-315 R270A, chain 1 of 2) above, with K17A, A19R counted along it
Jun bZIP K268A;Fos bZIP R143A, sequence (P01100 137-200 R143A, chain 2 of 2): as the sequence (P01100 137-200 R157A, chain 2 of 2) above, with R7A, A21R counted along it
Jun bZIP K268A;Fos bZIP R155A, sequence (P05412 252-315 K268A, chain 1 of 2): as the sequence (P05412 252-315 R270A, chain 1 of 2) above, with K17A, A19R counted along it
Jun bZIP K268A;Fos bZIP R155A, sequence (P01100 137-200 R155A, chain 2 of 2): as the sequence (P01100 137-200 R157A, chain 2 of 2) above, with R19A, A21R counted along it
Jun-Jun bZIP WT, sequence (P05412 252-315): as the sequence (P05412 252-315 R270A, chain 1 of 2) above, with A19R counted along it
Jun-Jun bZIP R261A, sequence (P05412 252-315 R261A): as the sequence (P05412 252-315 R270A, chain 1 of 2) above, with R10A, A19R counted along it
Jun bZIP K273A;Fos bZIP K148A, sequence (P05412 252-315 K273A, chain 1 of 2): as the sequence (P05412 252-315 R270A, chain 1 of 2) above, with A19R, K22A counted along it
Jun bZIP K273A;Fos bZIP K148A, sequence (P01100 137-200 K148A, chain 2 of 2): as the sequence (P01100 137-200 R157A, chain 2 of 2) above, with K12A, A21R counted along it
Jun bZIP K273A;Fos bZIP K153A, sequence (P05412 252-315 K273A, chain 1 of 2): as the sequence (P05412 252-315 R270A, chain 1 of 2) above, with A19R, K22A counted along it
Jun bZIP K273A;Fos bZIP K153A, sequence (P01100 137-200 K153A, chain 2 of 2): as the sequence (P01100 137-200 R157A, chain 2 of 2) above, with K17A, A21R counted along it
Jun bZIP K273A;Fos bZIP R146A, sequence (P05412 252-315 K273A, chain 1 of 2): as the sequence (P05412 252-315 R270A, chain 1 of 2) above, with A19R, K22A counted along it
Jun bZIP K273A;Fos bZIP R146A, sequence (P01100 137-200 R146A, chain 2 of 2): as the sequence (P01100 137-200 R157A, chain 2 of 2) above, with R10A, A21R counted along it
Jun bZIP R272A;Fos bZIP K153A, sequence (P05412 252-315 R272A, chain 1 of 2): as the sequence (P05412 252-315 R270A, chain 1 of 2) above, with A19R, R21A counted along it
Jun bZIP R272A;Fos bZIP K153A, sequence (P01100 137-200 K153A, chain 2 of 2): as the sequence (P01100 137-200 R157A, chain 2 of 2) above, with K17A, A21R counted along it
Jun bZIP R259A;Fos bZIP R146A, sequence (P05412 252-315 R259A, chain 1 of 2): as the sequence (P05412 252-315 R270A, chain 1 of 2) above, with R8A, A19R counted along it
Jun bZIP R259A;Fos bZIP R146A, sequence (P01100 137-200 R146A, chain 2 of 2): as the sequence (P01100 137-200 R157A, chain 2 of 2) above, with R10A, A21R counted along it

B1: TRE duplex 15-mer (dsDNA)
DNA 1: CGCGTGACTCACCCC
DNA 2: GGGGTGAGTCACGCG
[1]
  Kd: 680 ± 10 nM
[2]
  Kd: 860 ± 70 nM
[3]
  Kd: 4210 ± 200 nM
[4]
  Kd: 960 ± 110 nM
[5]
  Kd: 720 ± 10 nM
[6]
  Kd: 1390 ± 80 nM
[7]
  Kd: 1500 ± 80 nM
[8]
  Kd: 540 ± 30 nM
[9]
  Kd: 1450 ± 130 nM
[10]
  Kd: 760 ± 10 nM
[11]
  Kd: 2260 ± 140 nM
[12]
  Kd: 190 ± 20 nM
[13]
  Kd: 1900 ± 120 nM
[14]
  Kd: 840 ± 50 nM
[15]
  Kd: 5380 ± 120 nM
[16]
  Kd: 380 ± 20 nM
[17]
  Kd: 3560 ± 130 nM
